# T1: GST-Cdc25C, P30307
# T1 chain: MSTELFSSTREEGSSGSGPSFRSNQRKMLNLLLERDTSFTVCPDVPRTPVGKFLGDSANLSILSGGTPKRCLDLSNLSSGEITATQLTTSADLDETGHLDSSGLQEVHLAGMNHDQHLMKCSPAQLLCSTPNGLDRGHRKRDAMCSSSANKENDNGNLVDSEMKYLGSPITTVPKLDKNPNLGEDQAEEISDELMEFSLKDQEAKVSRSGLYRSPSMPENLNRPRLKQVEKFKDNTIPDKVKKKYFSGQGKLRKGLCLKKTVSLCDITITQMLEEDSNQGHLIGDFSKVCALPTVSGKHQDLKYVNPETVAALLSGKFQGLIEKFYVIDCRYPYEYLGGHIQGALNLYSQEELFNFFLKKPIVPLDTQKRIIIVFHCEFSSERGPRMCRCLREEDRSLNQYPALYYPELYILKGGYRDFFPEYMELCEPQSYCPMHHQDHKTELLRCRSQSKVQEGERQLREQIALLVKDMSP
# Experiments:
# [1] = biological target: T1, GST-Cdc25C, P30307
# [2] = biological target: 6his-Cdc2, P06493
# Sequence of 6his-Cdc2, P06493 (P06493 whole entry, looked up): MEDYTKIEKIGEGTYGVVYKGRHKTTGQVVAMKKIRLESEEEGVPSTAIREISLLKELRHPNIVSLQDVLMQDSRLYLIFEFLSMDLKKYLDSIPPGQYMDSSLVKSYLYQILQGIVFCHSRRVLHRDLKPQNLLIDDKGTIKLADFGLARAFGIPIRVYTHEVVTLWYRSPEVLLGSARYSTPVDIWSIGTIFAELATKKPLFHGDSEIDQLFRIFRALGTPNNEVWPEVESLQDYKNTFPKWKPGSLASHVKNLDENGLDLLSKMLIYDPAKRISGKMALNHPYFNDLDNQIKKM
protein,measurement,setting,value
6his-Chk1 (protein) MAVPFVEDWDLVQTLGEGAYGEVQLAVNRVTEEAVAVKIVDMKRAVDCPENIKKEICINKMLNHENVVKFYGHRREGNIQYLFLEYCSGGELFDRIEPDIGMPEPDAQRFFHQLMAGVVYLHGIGITHRDIKPENLLLDERDNLKISDFGLATVFRYNNRERLLNKMCGTLPYVAPELLKRREFHAEPVDVWSCGIVLTAMLAGELPWDQPSDSCQEYSDWKEKKTYLNPWKKIDSAPLALLHKILVENPSARITIPDIKKDRWYNKPLKKGAKRPRVTSGGVSESPSGFSKHIQSNLDFSPVNSASSEENVKYSSSQPEPRTGLSLWDTSPSYIDKLVQGISFSQPTCPDHMLLNSQLLGTPGSSQNPWQRLVKRMTRFFTKLDADKSYQCLKETCEKLGYQWKKSCMNQVTISTTDRRNNKLIFKVNLLEMDDKILVDFRLSKGDGLEFKRHFLKIKGKLIDIVSSQKIWLPAT,GST-Cdc25 phosphatase activity (loss of the slower migrating phosphorylated forms of Cdc2 on gel),[1],Prior phosphorylation of GST-Cdc25 by 6his-Chk1 leads to a dose-dependent reduction in GST-Cdc25 activity
same,"phosphorylation with gamma-32P ATP, SDS-PAGE and autoradiography",[1],GST-Cdc25 was phosphorylated by 6his-Chk1 and by 6his-hCDS1
GST-Cdc25C (protein) MSTELFSSTREEGSSGSGPSFRSNQRKMLNLLLERDTSFTVCPDVPRTPVGKFLGDSANLSILSGGTPKRCLDLSNLSSGEITATQLTTSADLDETGHLDSSGLQEVHLAGMNHDQHLMKCSPAQLLCSTPNGLDRGHRKRDAMCSSSANKENDNGNLVDSEMKYLGSPITTVPKLDKNPNLGEDQAEEISDELMEFSLKDQEAKVSRSGLYRSPSMPENLNRPRLKQVEKFKDNTIPDKVKKKYFSGQGKLRKGLCLKKTVSLCDITITQMLEEDSNQGHLIGDFSKVCALPTVSGKHQDLKYVNPETVAALLSGKFQGLIEKFYVIDCRYPYEYLGGHIQGALNLYSQEELFNFFLKKPIVPLDTQKRIIIVFHCEFSSERGPRMCRCLREEDRSLNQYPALYYPELYILKGGYRDFFPEYMELCEPQSYCPMHHQDHKTELLRCRSQSKVQEGERQLREQIALLVKDMSP,Cdc2 dephosphorylation by gel-mobility analysis,[2],GST-Cdc25 catalyses a reduction in the slower migrating phosphorylated forms of Cdc2
